Measured values from patent publication US20070141052A1.

Assays:
[1] = molecular target: biotin-labeled soluble FcRn; experiment: ELISA: biotinylated soluble FcRn on NeutrAvidin plate, IgG supernatant at pH 6.0, anti-human Fab-HRP detection; details: scale: % of wild type
[2] = molecular target: biotin-labeled soluble FcRn; experiment: ELISA: biotinylated soluble FcRn on NeutrAvidin plate, IgG supernatant at neutral pH, anti-human Fab-HRP detection; details: scale: % of wild type
[3] = molecular target: soluble human FcγRIII (human) (UniProt P08637); experiment: antigen-capture ELISA: IgG captured on PSA-coated plate, biotinylated soluble human FcγR, NeutrAvidin-AP; background-subtracted, normalized to parent
Chain of UniProt P08637 (P08637 17-208): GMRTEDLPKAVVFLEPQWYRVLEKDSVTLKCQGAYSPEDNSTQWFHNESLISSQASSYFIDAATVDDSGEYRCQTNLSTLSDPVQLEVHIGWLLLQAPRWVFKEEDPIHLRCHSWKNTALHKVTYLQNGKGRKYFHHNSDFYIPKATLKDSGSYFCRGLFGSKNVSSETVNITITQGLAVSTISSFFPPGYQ

[4] = molecular target: soluble human FcγRIIb (human) (UniProt P31994); experiment: as above
Chain of UniProt P31994 (P31994 43-217): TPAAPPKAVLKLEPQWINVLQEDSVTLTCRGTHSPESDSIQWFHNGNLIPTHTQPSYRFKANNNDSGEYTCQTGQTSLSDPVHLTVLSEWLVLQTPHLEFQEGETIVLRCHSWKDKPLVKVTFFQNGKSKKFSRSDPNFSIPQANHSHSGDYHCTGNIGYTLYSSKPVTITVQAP

[5] = molecular target: soluble human FcγRIIa (human) (UniProt P12318); experiment: as above
Chain of UniProt P12318 (P12318 34-217): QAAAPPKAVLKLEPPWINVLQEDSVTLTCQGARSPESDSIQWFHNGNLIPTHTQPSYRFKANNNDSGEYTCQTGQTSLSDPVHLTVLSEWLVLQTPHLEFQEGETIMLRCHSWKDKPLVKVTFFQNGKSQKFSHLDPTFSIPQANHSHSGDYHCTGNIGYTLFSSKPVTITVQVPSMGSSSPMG

[6] = molecular target: soluble human FcγRIII (human) (UniProt P08637); experiment: antigen-capture ELISA as for Tables 3-5 but with an anti-TNFα parent IgG; biotinylated soluble human FcγR; normalized to parent
[7] = molecular target: soluble human FcγRIIb (human) (UniProt P31994); experiment: as above

FcRn 6.0 [1] | FcRn 7.0 [2] | relative FcγRIII (relative to parental antibody (=1.0)) [3] | relative FcγRIIb (relative to parental antibody (=1.0)) [4] | Substance | further results
91 | 90 | – | – | anti-CD20 IgG Fc variant D280H (antibody) | –
– | – | 1.47 | 0.892 | anti-PSA IgG Fc variant Q295K (antibody) | –
– | – | 1.06 | 1.34 | anti-PSA IgG Fc variant Q295L (antibody) | relative FcγRIIa (relative to parental antibody (=1.0)) [5]: 1.44
– | – | 1.42 | 0.363 | anti-PSA IgG Fc variant S298N (antibody) | –
– | – | 1.38 | 1.26 | anti-PSA IgG Fc variant Y300I (antibody) | –
71 | 51 | – | – | anti-CD20 IgG Fc variant D280A (antibody) | –
82 | 23 | – | – | anti-CD20 IgG Fc variant D280T (antibody) | –
154 | 25 | – | – | anti-CD20 IgG Fc variant K290D (antibody) | –
– | – | 1.81 | 1.36 | anti-PSA IgG Fc variant Y300L (antibody) | –
149 | 73 | – | – | anti-CD20 IgG Fc variant K290V (antibody) | –

Second part, the substance before the results:

Substance | FcRn 6.0 [1] | FcRn 7.0 [2] | relative FcγRIII (relative to parental antibody (=1.0)) [3] | relative FcγRIIb (relative to parental antibody (=1.0)) [4] | further results
anti-CD20 IgG Fc variant D280K (antibody) | 145 | 131 | – | – | –
anti-TNFα IgG Fc variant D280H (antibody) | – | – | – | – | relative FcγRIII (relative to parental antibody (=1.0)) [6]: 1.24; relative FcγRIIb (relative to parental antibody (=1.0)) [7]: 0.92
anti-TNFα IgG Fc variant K290G (antibody) | – | – | – | – | relative FcγRIII (relative to parental antibody (=1.0)) [6]: 1.64; relative FcγRIIb (relative to parental antibody (=1.0)) [7]: 1.46
anti-TNFα IgG Fc variant K290S (antibody) | – | – | – | – | relative FcγRIII (relative to parental antibody (=1.0)) [6]: 1.23; relative FcγRIIb (relative to parental antibody (=1.0)) [7]: 1.4
anti-CD20 IgG Fc variant K290N (antibody) | 130 | 17 | – | – | –
anti-TNFα IgG Fc variant D280Y (antibody) | – | – | – | – | relative FcγRIII (relative to parental antibody (=1.0)) [6]: 1.23; relative FcγRIIb (relative to parental antibody (=1.0)) [7]: 2.14
anti-PSA IgG Fc variant S298D (antibody) | – | – | 2.31 | 0.188 | –
anti-CD20 IgG Fc variant D280N (antibody) | 93 | 61 | – | – | –
anti-PSA IgG Fc variant E294N (antibody) | – | – | 1.14 | 0.672 | –
anti-CD20 IgG Fc variant K290P (antibody) | 146 | 34 | – | – | –
anti-CD20 IgG Fc variant K290T (antibody) | 148 | 8 | – | – | –
anti-PSA IgG Fc variant S298V (antibody) | – | – | 2.8 | 0.592 | –
anti-TNFα IgG Fc variant D280Q (antibody) | – | – | – | – | relative FcγRIII (relative to parental antibody (=1.0)) [6]: 1.19; relative FcγRIIb (relative to parental antibody (=1.0)) [7]: 0.87
